{"source": "paper PMC9731866", "about": "(The Journal of Biological Chemistry, 2022)", "proteins": {"B1": {"name": "αMγ heterodimer of HsIDH3 (α-Q139A with γ) (complex, human)", "chain 1": "TGGVQTVTLIPGDGIGPEISAAVMKIFDAAKAPIQWEERNVTAIQGPGGKWMIPSEAKESMDKNKMGLKGPLKTPIAAGHPSMNLLLRKTFDLYANVRPCVSIEGYKTPYTDVNIVTIRENTEGEYSGIEHVIVDGVVASIKLITEGASKRIAEFAFEYARNNHRSNVTAVHKANIMRMSDGLFLQKCREVAESCKDIKFNEMYLDTVCLNMVQDPSQFDVLVMPNLYGDILSDLCAGLIGGLGVTPSGNIGANGVAIFESVHGTAPDIAGKDMANPTALLLSAVMMLRHMGLFDHAARIEAACFATIKDGKSLTKDLGGNAKCSDFTEEICRRVKDLD", "chain 2": "FSEQTIPPSAKYGGRHTVTMIPGDGIGPELMLHVKSVFRHACVPVDFEEVHVSSNADEEDIRNAIMAIRRNRVALKGNIETNHNLPPSHKSRNNILRTSLDLYANVIHCKSLPGVVTRHKDIDILIVRENTEGEYSSLEHESVAGVVESLKIITKAKSLRIAEYAFKLAQESGRKKVTAVHKANIMKLGDGLFLQCCREVAARYPQITFENMIVDNTTMQLVSRPQQFDVMVMPNLYGNIVNNVCAGLVGGPGLVAGANYGHVYAVFETATRNTGKSIANKNIANPTATLLASCMMLDHLKLHSYATSIRKAVLASMDNENMHTPDIGGQGTTSEAIQDVIRHIRVINGRAVEA", "notes": "α subunit of human IDH3 (HsIDH3), Q139A; γ subunit of human IDH3 (HsIDH3); One α and one γ chain; the heterodimer is the unit that associates into the (αMγ)2 heterotetramer; also called α_(Q139A)γ; mutant αγ heterodimer; source: E. coli BL21 (DE3) Codon-Plus, co-expressed from pQlinkN-α-γ-tev-His6, purified (Ni-NTA, TEV cleavage, gel filtration); not shown: His6, C-terminal, cleaved"}}, "biological_target": "the molecule itself", "assay": "SEC-MALS; low concentration (1 mg/ml); Superdex 200 10/300 GL, 24 °C, 10 mM Hepes pH 7.4, 200 mM NaCl, 5 mM β-ME; N counts the units (heterodimers or heterotetramers) in the oligomer"}
{"protein": "B1", "values": [{"measurement": "stoichiometry N", "result": 2}]}
